This series addresses T1, EngHD (Engrailed homeodomain, DNA-binding domain) (Drosophila melanogaster) (UniProt P02836).
T1 sequence: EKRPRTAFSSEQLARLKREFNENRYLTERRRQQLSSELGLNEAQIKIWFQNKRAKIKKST
The experiment in a line: FCS. The note with it: ~1 nM Alexa 488-EngHD with unlabeled dsDNA titrated, ionic strength 50 mM (NaCl) unless stated, buffer, pH and temperature not in the material.

What is called Kd is a measure of binding affinity in units of concentration. In the case of full beta3-tubulin gene 7219 bp, the Kd (upper estimate, text: sub-nM) was below 0.7 nM.
“CCATGGTTCTTAACCAAATTGAATTCTCGCCACCGATCGTGTTCGCCCGAAATAAATCTGGCCGAAAAGCCATCAATCTACAATCTAACTGTGCCTCGGTTTATACCTCCAACTGCCGTTCACCGAAAAGGCCGACAGTTTTCCGACAAAGACAAATTCTTAACCAAATTGAATTCTCGCCACCGATCGTGTTCGCCCGAAATAAATCTGGCCGAAAAGCCATCAATCTACAATCTAACTGTGCCTCGGTTTATACCTCCAACTGCCGTTCACCGAAAAGGCCGACAGTTTTCCGACTAATTGTTCTTAACCAAATTGAATTCTCGCCACCGATCGTGTTCGCCCGAAATAAATCTGGCCGAAAAGCCATCAATCTACAATCTAACTGTGCCTCGGTTTATACCTCCAACTGCCGTTCACCGAAAAGGCCGACAGTTTTCCGACTTCTTAACCAAATTGAATTCTCGCCACCGATCGTGTTCGCCCGAAATAAATCTGGCCGAAAAGCCATCAATCTACAATCTAACTGTGCCTCGGTTTATACCTCCAACTGCCGTTCACCGAAAAGGCCGACAGTTTTCCGACAAAGACAAAAAGCTT (double strand) [600 bp TAATTG]” yielded a Kd of 2.2 nM.

Source of the values: PMC6987225.
